Experimental data taken from patent US9266964.
Changes are numbered by the printed parent chain.

B1: M142-H08 (Fab, V domains shown)
VH: EVQLLESGGGLVQPGGSLRLSCAASGFTFSAYSMIWVRQAPGKGLEWVSYIRPSGGRTTYADSVKGRFTISRDNSKNTLYLQMNSLRAEDTAVYYCARGGLLLWFRELKSNYFDYWGQGTLVTVSS
VL: DIQMTQSPSSLSAFVGDRVTITCRASQPIDNYLNWYHQKPGKAPKLLIYAASRLQSGVPSRLSGSGFGTDFTLTISSLQPEDFGNYYCQQSYTVPYTFGGGTKVEIR
notes: Printed HC runs from VH into the start of CH1
B2: M162-A04 (Fab, V domains shown)
VH: EVQLLESGGGLVQPGGSLRLSCAASGFTFSHYIMMWVRQAPGKGLEWVSGIYSSGGITVYADSVKGRFTISRDNSKNTLYLQMNSLRAEDTAVYYCAYRRTGIPRRDAFDIWGQGTMVTVSS
VL: DIQMTQSPSTLSASVGDRVTITCRASQSISSWLAWYQQKPGKAPNLLIYKASTLESGVPSRFSGSGSGTEFTLTISSLQPDDFATYYCQQYNTYWTFGQGTKVEIK
notes: Non-germlined Fab discovered using phage display; Printed HC runs from VH into the start of CH1; also called M162-A4; 559A-M162-A4
B3: M35-G04 (Fab, V domains shown)
VH: EVQLLESGGGLVQPGGSLRLSCAASGFTFSYYHMSWVRQAPGKGLEWVSVISPSGGSTKYADSVKGRFTISRDNSKNTLYLQMNSLRAEDTAVYYCARGGSSDYAWGSYRRPYYFDYWGQGTLVTVSS
VL: DIQMTQSPATLSLSPGERATLSCRASQSVSSYLAWYQQKPGQAPRLLIYDASNRATGIPARFSGSGSGTDFTLTISSLEPEDFAVYYCQQRSNWPRGFTFGPGTKVDIK
notes: Printed HC runs from VH into the start of CH1; also called 559A-M35-G04; 559A-M0035-G04
B4: M145-D01 (Fab, V domains shown)
VH: B3 VH
VL: B3 VL
notes: as for B1
B5: M146-E12 (Fab, V domains shown)
VH: EVQLLESGGGLVQPGGSLRLSCAASGFTFSRYIMHWVRQAPGKGLEWVSSISPSGGLTSYADSVKGRFTISRDNSKNTLYLQMNSLRAEDTAVYYCAREFENAYHYYYYGMDVWGQGTTVTVSS
VL: DIQMTQSPSSLSASVGDRVTITCRASGDIGNALGWYQQKPGKAPRLLISDASTLQSGVPLRFSGSGSGTEFTLTISSLQPEDFATYYCLQGYNYPRTFGQGTKLEIR
notes: as for B1
B6: M38-F02 (Fab, V domains shown)
VH: EVQLLESGGGLVQPGGSLRLSCAASGFTFSYYMMVWVRQAPGKGLEWVSYIYSSGGHTVYADSVKGRFTISRDNSKNTLYLQMNSLRAEDTAVYYCARDLFLYDFWSKGAFDIWGQGTMVTVSS
VL: QSVLTQPPSVSVSPGQTASITCSGEKLGDKYVSWYQQKPGQSPSLVICEDSRRPSGIPERFSGSNSGNTATLTISGAQPMDEADYYCQAWDSSTAIFGPGTKVTVL
notes: as for B1
B7: M110-C12 (Fab, V domains shown)
VH: EVQLLESGGGLVQPGGSLRLSCAASGFTFSYYEMDWVRQAPGKGLEWVSGISSSGGHTAYADSVKGRFTISRDNSKNTLYLQMNSLRAEDTATYYCARERRSSSRARYYYGMDVWGQGTTVTVSS
VL: DIQMTQSPLSLSVTPGEPASISCRSSLSLLHSNGYNYLDWYVQRPGQSPQLLMYLSSTRASGVPDRFSGSGSGTDFTLEISRVEAEDVGVYYCMQPLETPPTFGGGTKVEIK
notes: as for B1
B8: M137-E12 (Fab, V domains shown)
VH: EVQLLESGGGLVQPGGSLRLSCAASGFTFSDYRMQWVRQAPGKGLEWVSVIVPSGGNTMYADSVKGRFTISRDNSKNTLYLQMNSLRAEDTAVYYCARGGPGSSIAARRAPTGYYGMDVWGQGTTVTVSS
VL: QSVLIQPPSVSGIPGQRVTISCSGNNSNFGSNTVTWYQQLPGTAPKLLIYSDSRRPSGVPDRFSGSRSDTSASLAISGLQSEDEAEYHCAAWDDSLNGVFGGGTKLTVL
notes: as for B1
B9: M76-D01 (Fab, V domains shown)
VH: EVQLLESGGGLVQPGGSLRLSCAASGFTFSFYAMHWVRQAPGKGLEWVSGIVPSGGRTHYADSVKGRFTISRDNSKNTLYLQMNSLRAEDTAVYYCATDSSGSPNPLFDYWGQGTLVTVSS
VL: DIVMTQTPPSLPVNPGEPASISCRSSQSLSDDGNTYLDWYLQRPGQSPQLLIHTLSYRASGVPDRFSGSGSGTDFTLKISRVEAEDVGVYYCMQGTHWPPTFGQGTKVEIK
notes: Printed HC runs from VH into the start of CH1 (printed end APSPKS)
B10: M208-F10 (Fab, V domains shown)
VH: EVQLLESGGGLVQPGGSLRLSCAASGFTFSHYLMTWVRQAPGKGLEWVSYISPSGGHTIYADSVKGRFTISRDNSKNTLYLQMNSLRAEDTAVYYCARVARGIAARSRTSYFDQWGQGTLVTVSS
VL: DIQMTQSPGTLSLSPGERATLSCRTSQFVNSNYLAWYQQTPGQAPRLLIYGASSRATGIPDRFSGTGYGTDFTLTISRLEPEDYGTYYCQQSSRTPWTFGQGTRVEIK
notes: Tested as Fab; printed HC runs into CH1; amber q written Q
B11: M160-G12 (Fab, V domains shown)
VH: B10 VH with Q114Y
VL: DIQMTQSPSFLSASVGDRVTITCRASQGISSYLAWYQQKPGKAPKLLIYAASTLQSGVPSRFSGSGSGTEFTLTISSLQPEDFATYYCQQLNSYPLTFGGGTKVEIK
notes: Printed HC runs from VH into the start of CH1; also called R84-D02 (as IgG)
B12: M208-E10 (Fab, V domains shown)
VH: B10 VH with R101Q, A104S, Q114Y
VL: B10 VL
notes: Tested as Fab; printed HC runs into CH1
B13: M206-F01 (Fab, V domains shown)
VH: B10 VH with H31G, L33M, T35V, Y50R, H57P, Q114Y
VL: B10 VL
notes: as for B12
B14: M206-H08 (Fab, V domains shown)
VH: B10 VH with H31D, L33M, T35A, Y50S, S52V, I59H, Q114Y
VL: B10 VL
notes: as for B12
B15: M205-D04 (Fab, V domains shown)
VH: B10 VH with H31T, L33K, T35Q, Y50S, H57P, I59N, Q114Y
VL: B10 VL
notes: as for B10
B16: M208-C06 (Fab, V domains shown)
VH: B10 VH with Y111F, F112I, Q114Y
VL: B10 VL
notes: as for B12
B17: M206-B10 (Fab, V domains shown)
VH: B10 VH with H31Q, T35A, Y50S, S52Y, H57W, I59K, Q114Y
VL: B10 VL
notes: as for B10
B18: M161-C11 (Fab, V domains shown)
VH: EVQLLESGGGLVQPGGSLRLSCAASGFTFSDYAMKWVRQAPGKGLEWVSSISSSGGVTQYADSVKGRFTISRDNSKNTLYLQMNSLRAEDTAVYYCAREEDYSSSWYSRRFDYYYGMDVWGQGTTVTVSS
VL: QSALTQPPSVSVSPGQTASITCSGDKLGDKYVSWYQQRPGQSPVLVIYQDTKRPSGIPERFSGSNSGNTATLTISGTQAVDEADYYCQAWDSSTYVFGGGTKVTVL
notes: as for B1
B19: M152-A12 (Fab, V domains shown)
VH: EVQLLESGGGLVQPGGSLRLSCAASGFTFSPYFMGWVRQAPGKGLEWVSGIGPSGGSTTYADSVKGRFTISRDNSKNTLYLQMNSLRAEDTAVYYCAREGPPYSSGWYRGLRQYHFDYWGQGTLVTVSS
VL: DIQMTQSPSSLSASVGDRVTITCRASQSISSYLSWYQQRPGKAPNLLIYAASSLQSGVPSRFSGSGSGTDFTLTISSLQPEDFATYYCQQSISIPRTFGQGTKVEVK
notes: as for B1
B20: M41-A11 (Fab, V domains shown)
VH: EVQLLESGGGLVQPGGSLRLSCAASGFTFSHYRMSWVRQAPGKGLEWVSSIYPSGGRTVYADSVKGRFTISRDNSKNTLYLQMNSLRAEDTAVYYCAKDKFEWRLLFRGIGNDAFDIWGQGTMVTVSS
VL: QSVLTQPPSVSVSPGQTASITCSGDKLGDKYTSWYQQRPGQSPVLVIYQDIKRPSGIPERFSGSNSGNTATLTISGTQAMDEADYYCQAWDSPNARVFGSGTKVTVL
notes: as for B1
B21: M145-D11 (Fab, V domains shown)
VH: B20 VH
VL: B20 VL
notes: Printed HC runs from VH into the start of CH1; also called 559A-M145-D11; 559A-M0145-D11
B22: M73-D06 (Fab, V domains shown)
VH: EVQLLESGGGLVQPGGSLRLSCAASGFTFSRYEMYWVRQAPGKGLEWVSSISSSGGPTAYADSVKGRFTISRDNSKNTLYLQMNSLRAEDTAMYYCAKGTPKWELLLRSIYIENAFDIWGQGTMVTVSS
VL: QSELTQPPSASETPGQRVTISCSGSSSNIGSNTVSWFQQLPGSAPRLLIYNDHRRPSGVPDRFSGSKSGTSASLVISGLQSQDEADYYCSAWDDSLNGVVFGGGTKLTVL
notes: as for B1

Experiments:
human plasma kallikrein [1] = molecular target: T1, human plasma kallikrein (human, UniProt P03952 20-390; P03952 391-638); assay: ELISA, biotinylated plasma kallikrein coated on microtiter plate, signal divided by streptavidin background
T1 construct: also called pKal; human pKal
Source text: Abbreviations used: "T/B" is the ELISA signal obtained using of the "target" (biotinylated plasma kallikrein) divided by the ELISA signal of the "background" (streptavidin); both of which were coated on microtiter plates. "nd" is not determined. The symbol "q" refers to the amber suppressible stop codon (TAG), which is translated as glutamine (Q) in strains of *E. coli* such as the TG1 cells that were used to express the Fab fragments.
T1 sequence (P03952 20-390, chain 1 of 2): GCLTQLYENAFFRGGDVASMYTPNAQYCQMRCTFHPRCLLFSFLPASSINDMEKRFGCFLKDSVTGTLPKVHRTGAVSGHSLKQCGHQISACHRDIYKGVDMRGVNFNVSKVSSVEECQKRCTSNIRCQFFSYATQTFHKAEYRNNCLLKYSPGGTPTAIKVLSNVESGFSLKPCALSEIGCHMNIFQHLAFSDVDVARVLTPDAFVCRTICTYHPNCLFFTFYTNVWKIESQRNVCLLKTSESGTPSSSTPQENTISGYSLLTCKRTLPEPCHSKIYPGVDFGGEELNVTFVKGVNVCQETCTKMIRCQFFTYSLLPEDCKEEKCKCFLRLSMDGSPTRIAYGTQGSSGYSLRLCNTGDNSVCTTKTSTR
T1 sequence (P03952 391-638, chain 2 of 2): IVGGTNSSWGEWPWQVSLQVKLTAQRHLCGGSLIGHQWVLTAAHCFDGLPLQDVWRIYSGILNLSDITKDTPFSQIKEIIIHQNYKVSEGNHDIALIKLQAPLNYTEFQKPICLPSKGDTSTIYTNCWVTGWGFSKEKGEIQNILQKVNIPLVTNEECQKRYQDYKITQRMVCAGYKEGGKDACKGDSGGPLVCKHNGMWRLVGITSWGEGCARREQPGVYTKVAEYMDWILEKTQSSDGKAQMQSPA

human plasma kallikrein [2] = molecular target: T1, human plasma kallikrein; assay: apparent inhibition constant (Ki,app) against human pKal, enzyme inhibition
human plasma kallikrein [3] = molecular target: T2, human plasma kallikrein (human, UniProt P03952 20-390; P03952 391-638); assay: cell-based or functional assay
T2 sequence (P03952 20-390, chain 1 of 2): as the sequence (P03952 20-390, chain 1 of 2) above
T2 sequence (P03952 391-638, chain 2 of 2): as the sequence (P03952 391-638, chain 2 of 2) above

human plasma kallikrein [4] = molecular target: T2, human plasma kallikrein; assay: Ki,app, inhibition of human pKal enzyme activity

| Binder | Human pKal ELISA (T/B) (human plasma kallikrein [1]) | Ki (human plasma kallikrein [2]) [nM] | % inhibition at 10 nM (human plasma kallikrein [3]) [%] | Ki (human plasma kallikrein [4]) [nM] |
| --- | --- | --- | --- | --- |
| B1 | 29.9 ratio of ELISA signal on target to background (streptavidin) | 0.2 | – | – |
| B2 | 11.4 ratio of ELISA signal on target to background (streptavidin) | 4.8 | – | – |
| B3 | 11.1 ratio of ELISA signal on target to background (streptavidin) | 2.9 | – | – |
| B4 | 6.2 ratio of ELISA signal on target to background (streptavidin) | 1.1 | – | – |
| B5 | 49.6 ratio of ELISA signal on target to background (streptavidin) | 2.2 | – | – |
| B6 | 33.5 ratio of ELISA signal on target to background (streptavidin) | 14 | – | – |
| B7 | 2.4 ratio of ELISA signal on target to background (streptavidin) | < 100 | – | – |
| B8 | 4.5 ratio of ELISA signal on target to background (streptavidin) | 79 | – | – |
| B9 | 11.2 ratio of ELISA signal on target to background (streptavidin) | < 100 | – | – |
| B10 | – | – | 92.5 | 0.2 |
| B11 | 38.3 ratio of ELISA signal on target to background (streptavidin) | 17 | – | – |
| B12 | – | – | 93.7 | 0.09 |
| B13 | – | – | 92.6 | 0.2 |
| B14 | – | – | 96 | 0.17 |
| B15 | – | – | 91.5 | 0.4 |
| B16 | – | – | 91.7 | 0.4 |
| B17 | – | – | 94.7 | 0.3 |
| B18 | 41.8 ratio of ELISA signal on target to background (streptavidin) | 0.3 | – | – |
| B19 | 19 ratio of ELISA signal on target to background (streptavidin) | < 100 | – | – |
| B20 | 28 ratio of ELISA signal on target to background (streptavidin) | 13 | – | – |
| B21 | 40 ratio of ELISA signal on target to background (streptavidin) | 0.79 | – | – |
| B22 | 4 ratio of ELISA signal on target to background (streptavidin) | < 100 | – | – |
